Experiment [1] addresses Fcγ receptors on human monocytes (FcγRI and RII). Put plainly: FACS on monocytes from human blood, antibody 10 µg/ml; no antibody: 8.5.
For experiment [2], the target named is Fcγ receptors on human granulocytes (FcγRII and RIII). The experiment in a line: FACS on granulocytes from human blood, antibody 10 µg/ml; no antibody: 1.2.
Experiment [3] deals with Fcγ receptor on human NK cells (FcγRIII) (human) (UniProt P08637). Put plainly: FACS on NK cells from human blood, antibody 10 µg/ml; no antibody: 0.03.
Fcγ receptor on human NK cells (FcγRIII) (human), sequence (P08637 17-254): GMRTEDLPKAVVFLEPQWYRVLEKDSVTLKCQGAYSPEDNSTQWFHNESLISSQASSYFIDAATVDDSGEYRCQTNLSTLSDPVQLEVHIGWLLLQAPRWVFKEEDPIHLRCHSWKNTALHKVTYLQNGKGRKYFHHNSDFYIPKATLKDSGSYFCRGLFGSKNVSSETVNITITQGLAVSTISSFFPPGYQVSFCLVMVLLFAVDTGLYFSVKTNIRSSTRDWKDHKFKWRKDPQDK
Experiment [4] concerns the target human complement factor C3 (from human pooled serum) (human) (UniProt P01024). Put plainly: C3 ELISA, antibody coated, human pooled serum; background OD405 0.098. In general terms: In an ELISA, binding on a coated surface is turned into a signal by an enzyme label.
Experiment [5] deals with human complement factor C1q (human) (UniProt P02745). Put plainly: C1q ELISA, antibody coated; background OD405 0.079.
human complement factor C1q (human), sequence (P02745 23-245 limits assumed, chain 1 of 3): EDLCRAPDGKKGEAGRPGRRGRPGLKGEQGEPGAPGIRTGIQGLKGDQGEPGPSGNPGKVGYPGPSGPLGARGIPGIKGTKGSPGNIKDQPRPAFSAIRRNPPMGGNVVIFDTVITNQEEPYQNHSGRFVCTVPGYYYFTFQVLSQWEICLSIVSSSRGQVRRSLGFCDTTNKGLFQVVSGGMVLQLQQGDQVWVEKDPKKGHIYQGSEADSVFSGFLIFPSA
human complement factor C1q (human), sequence (P02746 28-253 limits assumed, chain 2 of 3, further chain): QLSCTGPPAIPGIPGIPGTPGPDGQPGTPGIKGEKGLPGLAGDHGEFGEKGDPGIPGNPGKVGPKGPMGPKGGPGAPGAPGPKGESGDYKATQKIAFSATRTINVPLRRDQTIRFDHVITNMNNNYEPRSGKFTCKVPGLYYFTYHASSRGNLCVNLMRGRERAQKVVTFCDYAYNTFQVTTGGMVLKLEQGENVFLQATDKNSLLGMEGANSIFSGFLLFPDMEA
human complement factor C1q (human), sequence (P02747 29-245 limits assumed, chain 3 of 3, further chain): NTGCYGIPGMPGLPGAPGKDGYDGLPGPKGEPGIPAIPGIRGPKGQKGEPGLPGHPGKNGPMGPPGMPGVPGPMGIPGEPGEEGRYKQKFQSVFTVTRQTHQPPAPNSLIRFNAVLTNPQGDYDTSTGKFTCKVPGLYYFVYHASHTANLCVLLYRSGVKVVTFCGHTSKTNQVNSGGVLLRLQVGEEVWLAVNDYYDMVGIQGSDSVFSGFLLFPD

human complement factor C3 (from human pooled serum) (human), sequence (P01024 23-1663 limits assumed): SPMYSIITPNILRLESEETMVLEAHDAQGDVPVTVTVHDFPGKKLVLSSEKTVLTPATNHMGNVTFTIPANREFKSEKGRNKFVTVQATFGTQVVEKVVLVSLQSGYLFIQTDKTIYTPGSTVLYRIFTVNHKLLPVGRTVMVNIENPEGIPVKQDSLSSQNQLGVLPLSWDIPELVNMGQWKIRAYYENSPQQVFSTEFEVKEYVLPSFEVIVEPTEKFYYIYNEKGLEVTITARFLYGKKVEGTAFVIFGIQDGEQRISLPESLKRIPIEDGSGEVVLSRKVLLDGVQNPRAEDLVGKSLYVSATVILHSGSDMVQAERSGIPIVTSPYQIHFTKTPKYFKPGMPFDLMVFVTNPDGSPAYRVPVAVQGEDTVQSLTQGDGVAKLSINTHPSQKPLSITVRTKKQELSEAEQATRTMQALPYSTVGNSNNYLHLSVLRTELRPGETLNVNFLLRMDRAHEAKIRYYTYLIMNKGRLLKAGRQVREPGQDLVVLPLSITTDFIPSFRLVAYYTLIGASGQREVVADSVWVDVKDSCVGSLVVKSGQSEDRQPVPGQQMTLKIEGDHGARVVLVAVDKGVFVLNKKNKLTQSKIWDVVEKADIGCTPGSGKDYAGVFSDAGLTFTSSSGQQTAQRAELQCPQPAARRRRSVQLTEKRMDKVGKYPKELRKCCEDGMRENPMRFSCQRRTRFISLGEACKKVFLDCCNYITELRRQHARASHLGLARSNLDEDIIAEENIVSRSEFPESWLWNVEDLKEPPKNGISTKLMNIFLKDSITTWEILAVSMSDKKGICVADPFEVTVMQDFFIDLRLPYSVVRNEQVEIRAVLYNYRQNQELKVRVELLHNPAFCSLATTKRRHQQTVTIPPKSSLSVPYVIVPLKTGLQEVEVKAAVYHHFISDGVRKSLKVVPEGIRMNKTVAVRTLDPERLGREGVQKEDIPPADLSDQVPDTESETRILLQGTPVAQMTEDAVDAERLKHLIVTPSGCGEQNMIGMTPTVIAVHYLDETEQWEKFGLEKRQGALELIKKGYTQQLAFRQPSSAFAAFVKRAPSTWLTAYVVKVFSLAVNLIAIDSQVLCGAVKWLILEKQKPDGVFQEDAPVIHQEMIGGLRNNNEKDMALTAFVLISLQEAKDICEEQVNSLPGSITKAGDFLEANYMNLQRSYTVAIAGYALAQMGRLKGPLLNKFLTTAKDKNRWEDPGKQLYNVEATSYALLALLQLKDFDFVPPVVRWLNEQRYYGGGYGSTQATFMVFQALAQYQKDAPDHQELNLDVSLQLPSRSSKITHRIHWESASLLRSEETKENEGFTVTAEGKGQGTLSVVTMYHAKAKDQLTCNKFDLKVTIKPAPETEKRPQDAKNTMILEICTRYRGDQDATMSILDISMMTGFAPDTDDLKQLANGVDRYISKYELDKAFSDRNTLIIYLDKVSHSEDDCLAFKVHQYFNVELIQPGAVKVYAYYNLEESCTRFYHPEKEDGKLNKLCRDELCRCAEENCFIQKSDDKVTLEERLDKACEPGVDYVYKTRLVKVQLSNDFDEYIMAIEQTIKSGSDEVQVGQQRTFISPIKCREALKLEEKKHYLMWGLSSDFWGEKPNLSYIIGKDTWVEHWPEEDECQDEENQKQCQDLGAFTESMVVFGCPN

In the case of “HuMab 002 Fc variant IgG4v1 (S228P; L235E) (antibody)”, the % monocytes binding antibody in experiment [1] is 14.5%. The % granulocytes binding antibody in experiment [2] turned out to be 1.6%.
In the case of “human IgG4 (CLB, the Netherlands), negative control (antibody)”, in experiment [1], the % monocytes binding antibody stood at 9.4%. Besides, the % NK cells binding antibody in experiment [3] was determined as 0.06%. Besides, the Bmax (OD405 at 10 µg/ml) in experiment [4] stood at 0.182 OD405; in experiment [5], 0.222 OD405.
